According to paper PMC8409790:
pKd: −log10 of the molar value.

Target: FcRn/β2 microglobulin (UniProt P55899)
Experiment: SPR

pKd	Substance
5.30	Guselkumab (antibody)
5.30	Risankizumab (antibody)
5.30	Tildrakizumab (antibody)
5.30	Ustekinumab (antibody)
